Reference: patent US20020119473, “Nucleic acid ligands to the prostate specific membrane antigen” (published 2002)

B1: xPSM-A9 (ssRNA)
RNA: GGGAGGACGAUGCGGACCGAAAAAGACCUGACUUCUAUACUAAGUCUACGUUCCCAGACGACUCGCCCGA
modifications: 2'-F all pyrimidines; purines 2'-OH
B2: xPSM-A10 (62-A10) (ssRNA)
RNA: GGGAGGACGAUGCGGAUCAGCCAUGUUUACGUCACUCCUUGUCAAUCCUCAUCGGCAGACGACUCGCCCGA
modifications: 2'-F all pyrimidines; purines 2'-OH
B3: xPSM1.A10-1 (ssRNA)
RNA: GGGAGGACGAUGCGGAUCAGCCAUGUUUACGUCACUCCUUGUCAAUCCUCAUCGGCAGACGACUCG
modifications: 2'-F all pyrimidines; purines 2'-OH
B4: xPSM1.A10-3 (ssRNA)
RNA: GGGAGGACGAUGCGGAUCAGCCAUGUUUACGUCACUCCUUGUCAAUCCUCAUCGGC
modifications: 2'-F all pyrimidines; purines 2'-OH
B5: xPSM1.A10-4 (ssRNA)
RNA: GGGAGGACGAUGCGGAUCAGCCAUGUUUACGUCACUCCUUGUCAAUCCUCA
modifications: 2'-F all pyrimidines; purines 2'-OH
B6: xPSM1.A9-1 (ssRNA)
RNA: GGGAGGACGAUGCGGACCGAAAAAGACCUGACUUCUAUACUAAGUCUACGUUCCCAGACGACUCG
modifications: 2'-F all pyrimidines; purines 2'-OH
B7: xPSM1.A9-2 (ssRNA)
RNA: GGGAGGACGAUGCGGACCGAAAAAGACCUGACUUCUAUACUAAGUCUACGUUCCCAGACG
modifications: 2'-F all pyrimidines; purines 2'-OH
B8: xPSM1.A9-3 (ssRNA)
RNA: GGGAGGACGAUGCGGACCGAAAAAGACCUGACUUCUAUACUAAGUCUACGUUCCC
modifications: 2'-F all pyrimidines; purines 2'-OH

Tests used:
Conditions in all cases: tags: S-tag fusion released by enterokinase; baculovirus Sf-9 secreted
[1] = target: T1, xPSM (extracellular portion of PSMA) (Homo sapiens (LNCaP cDNA), UniProt Q04609 Q04609:44-750); test: inhibition; noncompetitive NAALADase inhibition, 37 C
T1 sequence (Q04609 44-750, one chain of several): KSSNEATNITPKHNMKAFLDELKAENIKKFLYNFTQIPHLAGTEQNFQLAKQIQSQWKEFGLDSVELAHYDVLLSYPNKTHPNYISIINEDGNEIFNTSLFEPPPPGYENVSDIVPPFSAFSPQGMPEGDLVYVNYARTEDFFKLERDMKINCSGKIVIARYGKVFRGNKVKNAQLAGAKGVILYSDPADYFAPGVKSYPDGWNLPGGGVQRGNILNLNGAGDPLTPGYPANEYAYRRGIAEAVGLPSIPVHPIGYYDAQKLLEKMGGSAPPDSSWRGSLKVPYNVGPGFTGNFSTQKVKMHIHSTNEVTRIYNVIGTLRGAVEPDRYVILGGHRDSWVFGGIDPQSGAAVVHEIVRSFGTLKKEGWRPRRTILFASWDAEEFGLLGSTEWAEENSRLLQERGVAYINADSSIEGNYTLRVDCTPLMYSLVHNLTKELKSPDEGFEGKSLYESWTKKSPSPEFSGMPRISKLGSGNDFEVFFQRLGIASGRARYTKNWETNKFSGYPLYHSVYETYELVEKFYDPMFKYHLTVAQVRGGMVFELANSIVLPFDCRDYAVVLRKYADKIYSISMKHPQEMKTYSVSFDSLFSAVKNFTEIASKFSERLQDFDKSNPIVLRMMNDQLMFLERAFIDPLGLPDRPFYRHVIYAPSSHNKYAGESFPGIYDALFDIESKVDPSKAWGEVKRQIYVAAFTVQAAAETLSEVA
Description: (§1) NAAG hydrolysis was performed essentially as described in Robinson et al. (1987) J Biol Chem. 262:14498-506. LNCaP cell extracts were prepared by sonication in the presence of 50 mM Tris, pH 7.4, 0.5% Triton-X-100. Cell lysate or purified xPSM was incubated in the presence of the radiolabeled substrate N-acetyl-L-aspartyl-L-[3,4-³H]glutamate (NEN Life Science Products, Boston, Mass.) at 37° C. for 10-15 minutes. The reaction was stopped with an equal volume of ice-cold 100 mM sodium phosphate, 2 mM EDTA. Products were separated from intact substrate using anion exchange chromatography and quantitated by scintillation counting. […] In all cases less than 20% of substrate was cleaved.

[2] = target: T1, xPSM (extracellular portion of PSMA); test: inhibition; NAALADase assay, 8 nM substrate, 37 C
Description: as §1

[3] = target: T1, xPSM (extracellular portion of PSMA); test: inhibition; competitive NAALADase inhibition, 37 C
Description: as §1

[4] = target: T1, xPSM (extracellular portion of PSMA); test: inhibition; competitive NAALADase inhibition, +/-7.8 nM, 37 C
Description: as §1

Row | Binder | IC50 [2] [nM] | also measured
1 | B1 | 5 | Ki [1]: 1.1 nM
2 | B2 | 80 | Ki [3]: 11.9 nM
3 | B3 | 40 | –
4 | B4 | 50 | Ki [4]: 20.5 nM
5 | B5 | > 700 | –
6 | GGGAGGACGAUGCGGAUCAGCCAUGUUUACGUCACUCCUUGUCAAU (ssRNA, 2'-F all pyrimidines; purines 2'-OH) [xPSM1.A10-5] | > 700 | –
7 | GGGAGGACGAUGCGGAUCAGCCAUGUUUACGUCACUCCUUG (ssRNA, 2'-F all pyrimidines; purines 2'-OH) [xPSM1.A10-6] | > 700 | –
8 | B6 | 8 | –
9 | B7 | 300 | –
10 | B8 | > 300 | –
11 | GGGAGGACGAUGCGGACCGAAAAAGACCUGACUUCUAUACUAAGUCUACG (ssRNA, 2'-F all pyrimidines; purines 2'-OH) [xPSM1.A9-4] | > 300 | –
12 | GGGAGGACGAUGCGGACCGAAAAAGACCUGACUUCUAUACUAAGU (ssRNA, 2'-F all pyrimidines; purines 2'-OH) [xPSM1.A9-5] | > 300 | –
13 | GGGAGGACGAUGCGGACCGAAAAAGACCUGACUUCUAUAC (ssRNA, 2'-F all pyrimidines; purines 2'-OH) [xPSM1.A9-6] | > 300 | –
